Consider 2 substances from article PMC12262736.

Test [1] has as its target MadS (Enterococcus faecalis). The test is described as follows: MST.
The target in test [2] is LiaS (Enterococcus faecalis). The test is described as follows: MST.

One may read the Kd as the concentration at which binding is half-saturated. The low end stands for higher affinity, the high end for lower affinity. Take MadR (natural protein): the Kd in test [1] came out at 8.08 µM; in test [2], 5.02 µM.
As for LiaR (natural protein), the Kd in test [1] was 25.7 µM; in test [2] it was 2.42 µM.
